Substrate: [H][C@@]1(O[C@@H]2[C@@H](O)[C@H](O)[C@@H](CO)O[C@@]2([H])O[C@H]2CC[C@]3(C)[C@@]4([H])C[C@@H](O)[C@]5([H])[C@@]([H])([C@](C)(CCC=C(C)C)O[C@@H]6O[C@H](CO[C@@H]7OC[C@H](O)[C@H](O)[C@H]7O)[C@@H](O)[C@H](O)[C@H]6O)CC[C@@]5(C)[C@]4(C)CC[C@@]3([H])C2(C)C)O[C@H](CO)[C@@H](O)[C@H](O)[C@H]1O
Assay: hydrolysis of arabinopyranose moiety of Rb2 (kinetic read-out not detailed)
Format: biochemical, Blastococcus saxobsidens
Details: enzyme 10 μg/ml; substrate range 0.1 mM to 5 mM as printed (unit μM doubtful); pH and temperature not stated for this constant; unit of the source corrected

B1: AbpBs (α-L-arabinopyranosidase) (Blastococcus saxobsidens) (protein)
chain: MRRIPFNRGWETRAHANFFAEMHGAAAPWQPVTLPHDAALGRTRDAANGAGSGYVPGGVYEYRTTLAAPAEYRDRRVLLEFEGVYRTAMVYVNGSLAGSWATGYTGFVVDLDDHLRYGGDNEIRVVCRAHQDSRWYSGAGIHRPVHLVVGPLTHLALDGVRVTTTEVDAEFAVVEVATTVEHDGRGLRTLELVTEVRDGEGSAVATATSPVTVLPGEPAVVRQRLLLPTPALWGPDSPSLYTAAVVLRDGGTDVDDDAVSFGVRTLSLDPERGLRINGEPIKLRGACVHSDNGVLGAATIGRAEERRVQLLKEAGFNALRSAHNPMSRAMLDACDRYGVLVMDELTDVWTESKTDFDAALDFPQWWERDVEAMVAKDVNHPSVVFYSIGNEIPEVAKPHGAVWSRRLAEKVRALDGTRFVTNGINAMLAVIGEAKAAEEQAGINTMLTDMGAFMDELSASELVATRTAEAYDVLDAAGMNYMEARYQLDRTLFPRRVIVGAETFAGKIDRLWRLVLDHPHVIGDFTWTGWDYLGEAGVGRVAAADDPTAGQFGAPYPWLLAHVGDIDITGHRRPASYYREIVFGRRRDPYIAVLRPERHGRELSATPWAWSDTVGSWSWAGAEEKPVTVEVYSDADEVELLLDGTSLGTAKAGEANRFRAAFEVTYAPGELTAVSRTGGQETGRCSLRSATGPLALAAAADRPVVRADDTDLAHVTLTLEDADGVVALGVDREVTVTVEGPGVLQGFGSAAPATEESYLDDVHTTFDGRALAVVRPTGAGTITLTATAPGCPPVSLGIEAR
notes: pGEX-4T-1 N-terminal GST fusion in E. coli BL21 (DE3), GST removed by thrombin (purified enzyme); primer-encoded N-terminus MRRIPF
  Km: 920 µM

From paper PMC9728169, “Enzymatic Biotransformation of Ginsenoside Rb2 into Rd by Recombinant α-L-Arabinopyranosidase from Blastococcus saxobsidens” (Journal of Microbiology and Biotechnology, 2019)
